Assay results taken from publication PMC9278863, “The two-domain elevator-type mechanism of zinc-transporting ZIP proteins” (Science Advances, 2022).

Target: the molecule itself
Test: crystal structure; metal-free BbZIP crystallised in lipidic cubic phase (monoolein), 100 mM NaOAc-HOAc pH 4.5, LiSO4, PEG400, 20°C; two molecules in the asymmetric unit; parallel dimers seen in the crystal packing

B1: ZIP from Bordetella bronchiseptica (BbZIP), wild type (natural protein, UniProt A0A0H3LM39 1-309, looked up)
chain: MNQPSSLAADLRGAWHAQAQSHPLITLGLAASAAGVVLLLVAGIVNALTGENRVHVGYAVLGGAAGFAATALGALMALGLRAISARTQDAMLGFAAGMMLAASAFSLILPGLDAAGTIVGPGPAAAAVVALGLGLGVLLMLGLDYFTPHEHERTGHQGPEAARVNRVWLFVLTIILHNLPEGMAIGVSFATGDLRIGLPLTSAIAIQDVPEGLAVALALRAVGLPIGRAVLVAVASGLMEPLGALVGVGISSGFALAYPISMGLAAGAMIFVVSHEVIPETHRNGHETTATVGLMAGFALMMFLDTALG
notes: density seen for residues 21-145, 165-279, 285-309 (chain A) and 18-77, 84-145, 166-219, 225-307 (chain B) of the metal-free structure; also called Zrt/Irt-like protein; WT; source: E. coli C43(DE3), purified (DDM solubilisation, HisTrap IMAC, SEC)
binding result: binds
